Source: patent US8399206B2, “Methods for diagnosis, prognosis and methods of treatment” (Nodality, Inc., priority 2008, dated 2013)

B1: IL-27: interleukin-27 (protein, UniProt Q8NEV9 29-243; Q14213 21-229, looked up)
Interleukin-27 subunit alpha: FPRPPGRPQLSLQELRREFTVSLHLARKLLSEVRGQAHRFAESHLPGVNLYLLPLGEQLPDVSLTFQAWRRLSDPERLCFISTTLQPFHALLGGLGTQGRWTNMERMQLWAMRLDLRDLQRHLRFQVLAAGFNLPEEEEEEEEEEEEERKGLLPGALGSALQGPAQVSWPQLLSTYRLLHSLELVLSRAVRELLLLSKAGHSVWPLGFPTLSPQP
Interleukin-27 subunit beta: RKGPPAALTLPRVQCRASRYPIAVDCSWTLPPAPNSTSPVSFIATYRLGMAARGHSWPCLQQTPTSTSCTITDVQLFSMAPYVLNVTAVHPWGSSSSFVPFITEHIIKPDPPEGVRLSPLAERQLQVQWEPPGSWPFPEIFSLKYWIRYKRQGAARFHRVGPIEATSFILRAVRPRARYYVQVAAQDLTDYGELSDWSLPATATMSLGK
B2: FLT-3L: fms-like tyrosine kinase receptor-3 ligand (protein, UniProt P49771 27-235, looked up)
Fms-related tyrosine kinase 3 …: TQDCSFQHSPISSDFAVKIRELSDYLLQDYPVTVASNLQDEELCGGLWRLVLAQRWMERLKTVAGSKMQGLLERVNTEIHFVTKCAFQPPPSCLRFVQTNISRLLQETSEQLVALKPWITRQNFSRCLELQCQPDSSTLPPPWSPRPLEATAPTAPQPPLLLLLLLPVGLLLLAAAWCLHWQRTRRRTPRPGEQVPPVPSPQDLLLVEH

Test system: AML blasts
Assay: SCNP / phospho-flow modulated signaling assay, AML study No. 1 (PBMC at diagnosis, CR vs NR)
Format: cell-based, human
[1] = Study No. 1 sensitivity analysis, CR samples
[2] = Study No. 1 sensitivity analysis, NR samples incl. CRp

Molecule	Mean Value of CRs, p-CREB Total Phospho [1]	Mean Value of CRs, p-Stat1 Total Phospho [1]	Mean Value of CRs, p-Stat3 Total Phospho [1]	Mean Value of NRs, p-CREB Total Phospho [2]	Mean Value of NRs, p-Stat1 Total Phospho [2]	Mean Value of NRs, p-Stat3 Total Phospho [2]	IL-27-induced levels of total p-Stat1 and p-Stat3 (staurosporine resistant samples vs other apoptosis categories)	Mean Value of CRs, p-Akt Fold [1]	Mean Value of CRs, p-CREB Fold [1]	Mean Value of CRs, p-Erk Fold [1]	Mean Value of CRs, p-Plcγ2 Total Phospho [1]	Mean Value of CRs, p-S6 Fold [1]	Mean Value of CRs, p-Plcγ2 Fold (Study No. 1 sensitivity analysis, CR samples, negative = down regulation)	Mean Value of NRs, p-Akt Fold [2]	Mean Value of NRs, p-CREB Fold [2]	Mean Value of NRs, p-Erk Fold [2]	Mean Value of NRs, p-Plcγ2 Total Phospho [2]	Mean Value of NRs, p-S6 Fold [2]	Mean Value of NRs, p-Plcγ2 Fold (Study No. 1 sensitivity analysis, NR samples incl. CRp, negative = down regulation)
B1	1.25	0.39	1.01	2.36	0.81	1.85	all greater in this apoptotic sub-category												
B2	1.39			2.13				0.10	0.07	0.08	1.81	0.14	−0.14	0.65	0.36	0.33	2.78	0.83	−0.08
